From paper PMC3205914 (Nature cell biology, 2010)

Legend:
[1] = molecular target: T1, 6His–ParB (Caulobacter crescentus) (C. crescentus, UniProt B8GW30 1-304); experiment: SPR
T1 sequence (looked up): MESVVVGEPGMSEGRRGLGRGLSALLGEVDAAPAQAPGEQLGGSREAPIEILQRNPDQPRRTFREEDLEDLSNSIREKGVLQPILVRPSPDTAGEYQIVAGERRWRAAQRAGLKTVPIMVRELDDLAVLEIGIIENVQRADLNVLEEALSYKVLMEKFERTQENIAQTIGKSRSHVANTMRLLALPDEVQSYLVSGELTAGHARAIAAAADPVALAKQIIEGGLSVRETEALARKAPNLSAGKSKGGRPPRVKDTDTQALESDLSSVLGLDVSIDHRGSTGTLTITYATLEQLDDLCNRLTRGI

[2] = molecular target: T2, ParB (Caulobacter crescentus centromere-binding protein), immobilized for SPR (C. crescentus, UniProt B8GW30 1-304); experiment: SPR
T2 sequence (looked up): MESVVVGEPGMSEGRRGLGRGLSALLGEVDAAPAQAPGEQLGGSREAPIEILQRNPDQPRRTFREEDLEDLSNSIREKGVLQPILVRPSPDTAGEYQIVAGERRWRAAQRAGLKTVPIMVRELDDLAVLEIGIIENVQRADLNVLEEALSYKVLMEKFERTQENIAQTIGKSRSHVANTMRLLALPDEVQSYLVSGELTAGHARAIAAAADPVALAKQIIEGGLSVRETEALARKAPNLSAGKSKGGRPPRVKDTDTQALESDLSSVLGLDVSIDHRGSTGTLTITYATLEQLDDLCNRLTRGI

[3] = molecular target: the molecule itself; experiment: light scattering

Measured: binding result

B1: ParA (Caulobacter crescentus ATPase ParA), purified (enzyme, C. crescentus, UniProt B8GW31 1-267, looked up)
chain: MSANPLRVLAIANQKGGVGKTTTAINLGTALAACGERVLLIDADPQGNCSTGLGIGRTQRRTTLYDVLMGEAPVVDAAVKTELPGLDVIPADADLSGVEIELGQTARRSYRLRDALEAIRANGPYTYVLIDCPPSLNVLTVNAMTAADAVFVPLQCEFFALEGLTQLMRTIERVRGSLNPRLEIQGVVLTMYDRRNSLSEQVAKDVRAHFGDKVYDAVIPRNVRVSEAPSFGKPVLLYDLKCAGSQAYLKLAREVISRERDRQAKAA
binds: all assays above
